In PMC12232886 (2025):

Key:
[1] = biological target: T1, Fyn SH3 (Homo sapiens, UniProt P06241); experiment: NMR titration
[2] = biological target: T1, Fyn SH3; experiment: ITC

T1 sequence (P06241 79-146): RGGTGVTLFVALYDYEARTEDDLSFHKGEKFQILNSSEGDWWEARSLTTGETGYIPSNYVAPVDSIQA

## PSGTGPEDTEGGRHA [Tau 170-184]
[1]
  Kd: 127 µM

## ERPGSKEEVDEDRDV [Tau 210-224]
[1]
  Kd: 163 µM

## QDGRPPQTAAREATS [Tau 241-255]
[1]
  Kd: 327 µM

B1: Tau 151-243 (protein)
chain: SGMPGAPLLPEGPREATRQPSGTGPEDTEGGRHAPELLKHQLLGDLHQEGPPLKGAGGKERPGSKEEVDEDRDVDESSPQDSPPSKASPAQDG
[2]
  Kd: 11 µM
